Key:
abl_drome Abl = abl_drome Abl (UniProt P00522)
ena_drome ena = ena_drome ena (UniProt Q8T4F7)
Sequence of UniProt Q8T4F7 (Q8T4F7 whole entry): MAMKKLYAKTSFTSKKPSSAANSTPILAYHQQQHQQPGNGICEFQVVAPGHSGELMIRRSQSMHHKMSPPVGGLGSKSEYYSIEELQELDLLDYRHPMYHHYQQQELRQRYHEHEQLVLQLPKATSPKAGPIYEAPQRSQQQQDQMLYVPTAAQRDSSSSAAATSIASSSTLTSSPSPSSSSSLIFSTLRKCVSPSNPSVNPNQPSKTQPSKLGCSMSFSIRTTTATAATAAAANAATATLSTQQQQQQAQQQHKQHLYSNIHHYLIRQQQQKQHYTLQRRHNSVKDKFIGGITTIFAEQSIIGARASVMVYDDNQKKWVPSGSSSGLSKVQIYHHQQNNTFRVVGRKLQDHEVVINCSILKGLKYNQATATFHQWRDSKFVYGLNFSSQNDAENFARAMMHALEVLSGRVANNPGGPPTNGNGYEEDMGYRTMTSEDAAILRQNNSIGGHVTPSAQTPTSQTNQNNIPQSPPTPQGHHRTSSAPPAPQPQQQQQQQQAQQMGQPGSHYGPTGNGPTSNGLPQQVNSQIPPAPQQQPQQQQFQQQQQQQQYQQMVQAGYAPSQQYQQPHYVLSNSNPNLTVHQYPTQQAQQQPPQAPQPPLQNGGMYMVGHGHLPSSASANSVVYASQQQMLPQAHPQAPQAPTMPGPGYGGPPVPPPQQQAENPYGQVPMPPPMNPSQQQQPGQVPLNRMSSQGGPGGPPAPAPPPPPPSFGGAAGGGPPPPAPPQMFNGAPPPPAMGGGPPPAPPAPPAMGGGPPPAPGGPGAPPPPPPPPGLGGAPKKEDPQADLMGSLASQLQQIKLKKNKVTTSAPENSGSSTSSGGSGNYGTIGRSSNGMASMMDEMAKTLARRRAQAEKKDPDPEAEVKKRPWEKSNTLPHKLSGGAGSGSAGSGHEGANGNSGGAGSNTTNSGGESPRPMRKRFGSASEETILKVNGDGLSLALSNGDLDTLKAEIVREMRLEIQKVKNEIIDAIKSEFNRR

Sequence of UniProt P00522 (P00522 whole entry): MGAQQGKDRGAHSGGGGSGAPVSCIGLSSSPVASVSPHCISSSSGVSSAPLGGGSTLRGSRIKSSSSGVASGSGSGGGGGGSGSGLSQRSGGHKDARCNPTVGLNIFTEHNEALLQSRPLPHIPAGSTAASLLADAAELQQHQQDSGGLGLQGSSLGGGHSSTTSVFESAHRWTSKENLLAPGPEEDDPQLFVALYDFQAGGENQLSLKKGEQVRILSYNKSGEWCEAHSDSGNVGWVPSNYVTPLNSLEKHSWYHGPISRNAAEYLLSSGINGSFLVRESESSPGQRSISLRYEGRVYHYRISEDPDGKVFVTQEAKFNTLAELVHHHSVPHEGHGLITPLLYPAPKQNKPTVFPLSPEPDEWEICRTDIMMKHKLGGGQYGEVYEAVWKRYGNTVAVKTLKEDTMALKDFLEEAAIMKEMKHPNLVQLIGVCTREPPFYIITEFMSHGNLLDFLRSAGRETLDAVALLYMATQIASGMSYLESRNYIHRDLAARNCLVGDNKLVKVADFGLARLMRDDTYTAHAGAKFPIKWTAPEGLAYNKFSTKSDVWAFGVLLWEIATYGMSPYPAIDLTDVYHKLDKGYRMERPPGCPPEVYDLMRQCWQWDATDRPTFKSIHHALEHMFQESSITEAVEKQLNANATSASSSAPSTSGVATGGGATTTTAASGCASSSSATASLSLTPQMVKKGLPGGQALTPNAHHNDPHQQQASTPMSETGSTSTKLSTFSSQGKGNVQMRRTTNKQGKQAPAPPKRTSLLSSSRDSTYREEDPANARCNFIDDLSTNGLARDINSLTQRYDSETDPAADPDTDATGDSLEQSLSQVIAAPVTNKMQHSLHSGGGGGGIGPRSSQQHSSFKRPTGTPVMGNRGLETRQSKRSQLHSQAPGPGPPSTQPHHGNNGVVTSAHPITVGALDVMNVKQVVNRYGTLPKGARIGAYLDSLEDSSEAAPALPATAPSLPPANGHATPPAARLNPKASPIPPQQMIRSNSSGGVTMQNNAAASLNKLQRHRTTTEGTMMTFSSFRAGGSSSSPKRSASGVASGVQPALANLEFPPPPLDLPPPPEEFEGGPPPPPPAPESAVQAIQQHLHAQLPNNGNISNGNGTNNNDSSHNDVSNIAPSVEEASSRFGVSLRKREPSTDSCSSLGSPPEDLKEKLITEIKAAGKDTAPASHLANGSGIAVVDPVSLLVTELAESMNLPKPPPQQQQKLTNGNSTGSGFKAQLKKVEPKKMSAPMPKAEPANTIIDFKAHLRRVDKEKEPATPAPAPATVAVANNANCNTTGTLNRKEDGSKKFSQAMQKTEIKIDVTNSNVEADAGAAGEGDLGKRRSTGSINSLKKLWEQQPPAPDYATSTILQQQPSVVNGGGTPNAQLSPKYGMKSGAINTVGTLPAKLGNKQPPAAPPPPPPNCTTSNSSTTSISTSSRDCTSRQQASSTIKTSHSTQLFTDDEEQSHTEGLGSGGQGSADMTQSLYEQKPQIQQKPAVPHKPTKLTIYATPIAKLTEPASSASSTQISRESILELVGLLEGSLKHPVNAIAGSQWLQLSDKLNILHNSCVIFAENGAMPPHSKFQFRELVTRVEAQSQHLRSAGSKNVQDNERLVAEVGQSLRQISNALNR

- effect of a mutation on the interaction (abl_drome Abl): decreasing interaction
- effect of a mutation on the interaction (ena_drome ena): decreasing interaction
Substance: Tyrosine-protein phosphatase Lar (Drosophila melanogaster (Fruit fly)), P16621 C1670S

Source: IntAct's records for PubMed 10069336
